± gives the uncertainty stated by the source.
Assay: self-splicing fitness, log relative to wild type (ln ratio); higher = more splicing; Tetrahymena group I intron in knt gene, E. coli kanamycin selection, DiMSum; sequences stand for … in CUCUCU…GGAGGGAAAAGUUAUCAGGCAUGCACCUGGUAGCUAGUCUUUAAACCAAUAGAUUGCAUCGGUUUAAAAGGCAAGACCGUCAAAUUGCGGGAAAGGGGUCAACAGCCGUUCAGUACCAAGUCUCAGGGGAAACUUUGAGAUGGCCUUGCAAAGGGUAUGGUAAUAAGCUGACGGACAUGGUCCUAACCACGCAGCCAAGUCCUAAGUCAACAGAUCUUCUGUUGAUAUGGAUGCAGUUCACAGACUAAAUGUCGGUCGGGGAAGAUGUAUUCUUCUCAUAAGAUAUAGUCGGACCUCUCCUUAAUGGGAGCUAGCGGAUGAAGUGAUGCAACACUGGAGCCGCUGGGAACUAAUUUGUAUGCGAAAGUAUAUUGAUUAGUUUUGGAGUACUCGUGGUCG
How it was run: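 Fitness was computed with DiMSum as the error-weighted combination of replicate fold changes, kanamycin versus none, each normalised to wild type. The library randomised all eight intron nucleotides of the P1ex region, with the intron placed in the knt kanamycin-resistance gene on pET-22b(+) in E. coli BL21(DE3). Six replicate transformations were grown overnight at 37°C or 30°C on LB agar with or without 25 μg/mL kanamycin, plus 100 μg/mL carbenicillin, 50 μM IPTG and 0.2% rhamnose. Pooled colonies were amplicon-sequenced on an Illumina HiSeq 2500.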

| Sequence | self-splicing fitness (ln) (30 °C) | self-splicing fitness (ln) (37 °C) |
| --- | --- | --- |
| UGUUAGCAAUAUUACGAAUG | -1.1 ± 0.097 | -0.239 ± 0.13 |
| UAGAAGCAAUAUUACGAGCG | -0.732 ± 0.096 | -0.815 ± 0.13 |
| GCCGAGCAAUAUUACGCACC | -1.96 ± 0.23 | -0.483 ± 0.21 |
| UUCGAGCAAUAUUACGAUAG | -2.73 ± 0.44 | -1.77 ± 0.25 |
| CGACAGCAAUAUUACGACAU | -2.444 ± 0.014 | -1.33 ± 0.033 |
| AGUGAGCAAUAUUACGAGAC | – | -2.17 ± 0.24 |
| AUGUAGCAAUAUUACGCAAC | -2.69 ± 0.45 | -0.382 ± 0.27 |
| GGAUAGCAAUAUUACGGUUC | -2.54 ± 0.23 | -2.05 ± 0.28 |
| CACCAGCAAUAUUACGAAAA | -3.1 ± 0.2 | -2.33 ± 0.2 |
| GGGCAGCAAUAUUACGCCGC | -3.33 ± 0.22 | -2.27 ± 0.31 |
| GUAGAGCAAUAUUACGCAUG | -1.94 ± 0.13 | -0.699 ± 0.19 |
| AUCUAGCAAUAUUACGUGGG | -2.22 ± 0.18 | -2.42 ± 0.27 |
| CUCGAGCAAUAUUACGGUGU | -2.83 ± 0.33 | -2.7 ± 0.31 |
| UCUUAGCAAUAUUACGAUUA | -2.37 ± 0.24 | -1.34 ± 0.2 |
| GAGCAGCAAUAUUACGGGCC | -2.94 ± 0.33 | -1.21 ± 0.29 |
| AUCGAGCAAUAUUACGACUA | -1.54 ± 0.24 | -0.741 ± 0.15 |
| UGAAAGCAAUAUUACGGCCC | -0.866 ± 0.26 | 0.448 ± 0.4 |
| ACGGAGCAAUAUUACGCUCC | – | -1.28 ± 0.37 |
| CAGGAGCAAUAUUACGAUUG | -3.77 ± 0.28 | -2.46 ± 0.23 |
| CCAAAGCAAUAUUACGAGGU | -4.24 ± 0.2 | -1.71 ± 0.13 |
| AUGUAGCAAUAUUACGGACA | -0.611 ± 0.083 | 0.202 ± 0.12 |
| ACUAAGCAAUAUUACGCUAC | -3.94 ± 0.23 | -1.08 ± 0.18 |
| ACACAGCAAUAUUACGUACG | -1.19 ± 0.067 | -0.925 ± 0.081 |
| GGCCAGCAAUAUUACGUGUC | -3.2 ± 0.17 | -1.41 ± 0.12 |
| AGUAAGCAAUAUUACGAGCU | -2.23 ± 0.14 | -1.98 ± 0.13 |

| Sequence | self-splicing fitness (ln) (30 °C) | self-splicing fitness (ln) (37 °C) |
| --- | --- | --- |
| UCCGAGCAAUAUUACGUGGG | -2.8 ± 0.17 | -2.56 ± 0.26 |
| CAAUAGCAAUAUUACGAUGA | -2.26 ± 0.18 | -1.54 ± 0.23 |
| UCGAAGCAAUAUUACGUAAC | -2.1 ± 0.19 | -2.77 ± 0.38 |
| UGCGAGCAAUAUUACGACGC | -3.46 ± 0.25 | – |
| AUCGAGCAAUAUUACGCUGC | -2.59 ± 0.45 | – |
| GCUCAGCAAUAUUACGUUAC | -1.56 ± 0.12 | -1.65 ± 0.14 |
| AUGAAGCAAUAUUACGCGUG | -0.281 ± 0.066 | -0.171 ± 0.099 |
| CCUGAGCAAUAUUACGUUGU | -3.57 ± 0.2 | -2.73 ± 0.23 |
| UUCGAGCAAUAUUACGAUUG | – | -2.52 ± 0.34 |
| ACUCAGCAAUAUUACGGAAA | -1.61 ± 0.14 | -1.5 ± 0.16 |
| UCCUAGCAAUAUUACGCCCA | -1.65 ± 0.34 | -0.0863 ± 0.31 |
| UCUCAGCAAUAUUACGGUGU | -2.03 ± 0.086 | -1 ± 0.097 |
| UGCUAGCAAUAUUACGCCCU | -0.725 ± 0.27 | -0.338 ± 0.27 |
| UGAGAGCAAUAUUACGGCGG | -3.73 ± 0.35 | -1.9 ± 0.3 |
| UUGUAGCAAUAUUACGCUGG | -1.38 ± 0.15 | -1.77 ± 0.23 |
| CAAAAGCAAUAUUACGUCCC | -2.65 ± 0.26 | -2.26 ± 0.42 |
| GCAGAGCAAUAUUACGUAAU | -2.29 ± 0.21 | -1.95 ± 0.35 |
| AAAGAGCAAUAUUACGCACU | -1.46 ± 0.12 | -0.12 ± 0.15 |
| CAUAAGCAAUAUUACGUUCG | -0.99 ± 0.079 | 0.184 ± 0.09 |
| UGACAGCAAUAUUACGUUCA | -0.939 ± 0.076 | 0.0202 ± 0.08 |
| UUGAAGCAAUAUUACGUGUC | -2.93 ± 0.21 | -2.47 ± 0.24 |
| GGCCAGCAAUAUUACGGCCU | -3.58 ± 0.23 | -2.42 ± 0.27 |
| AAUGAGCAAUAUUACGGCCG | -2.12 ± 0.15 | -1.36 ± 0.2 |
| GGGAAGCAAUAUUACGUAAU | -1.88 ± 0.14 | -0.632 ± 0.22 |
| UGCCAGCAAUAUUACGCAUG | -1.28 ± 0.085 | -1.43 ± 0.13 |

| Sequence | self-splicing fitness (ln) (30 °C) | self-splicing fitness (ln) (37 °C) |
| --- | --- | --- |
| GUCUAGCAAUAUUACGUAGU | -0.529 ± 0.087 | 0.276 ± 0.092 |
| UUAGAGCAAUAUUACGAGGU | – | -2.29 ± 0.35 |
| GCCAAGCAAUAUUACGUUUG | -3.38 ± 0.16 | -2.61 ± 0.21 |
| ACUUAGCAAUAUUACGUAUG | -3.35 ± 0.22 | -2.2 ± 0.16 |
| UGGCAGCAAUAUUACGGGGG | -3.38 ± 0.23 | -2.84 ± 0.29 |
| CCCAAGCAAUAUUACGUCGU | -4.05 ± 0.2 | -2.31 ± 0.15 |
| UCACAGCAAUAUUACGGUAC | -3.57 ± 0.24 | -2.6 ± 0.22 |
| UGGUAGCAAUAUUACGGUCU | -0.135 ± 0.21 | -0.457 ± 0.33 |
| UUCAAGCAAUAUUACGGCGC | -1.42 ± 0.14 | -1.47 ± 0.2 |
| GGACAGCAAUAUUACGACUU | -0.232 ± 0.085 | 1.19 ± 0.1 |
| GCCGAGCAAUAUUACGGCCA | -1.6 ± 0.11 | -1.52 ± 0.12 |
| CUAAAGCAAUAUUACGCGAU | -0.384 ± 0.051 | 0.349 ± 0.062 |
| CUUGAGCAAUAUUACGCCGA | – | -2.7 ± 0.33 |
| GCGCAGCAAUAUUACGAACU | 0.116 ± 0.11 | 0.476 ± 0.13 |
| CCUAAGCAAUAUUACGGAGU | -3 ± 0.17 | -2.55 ± 0.17 |
| GCUCAGCAAUAUUACGUUAU | -1.08 ± 0.12 | -0.166 ± 0.12 |
| CGGCAGCAAUAUUACGUCAU | -2.83 ± 0.12 | -1.09 ± 0.092 |
| GCUUAGCAAUAUUACGUUGU | -1.5 ± 0.066 | -0.844 ± 0.093 |
| AUUAAGCAAUAUUACGAAUA | -1.29 ± 0.21 | -0.938 ± 0.21 |
| CUCGAGCAAUAUUACGACAG | -1.76 ± 0.15 | -1.42 ± 0.21 |
| UCUCAGCAAUAUUACGGUCG | -1.96 ± 0.15 | -0.825 ± 0.14 |
| AUGAAGCAAUAUUACGAAUG | -1.25 ± 0.095 | -0.913 ± 0.1 |
| AGUCAGCAAUAUUACGCAUU | -0.401 ± 0.069 | -0.421 ± 0.085 |
| GUCAAGCAAUAUUACGCAUA | -1.58 ± 0.063 | -0.367 ± 0.06 |
| UACGAGCAAUAUUACGUUUG | -3.84 ± 0.27 | -1.94 ± 0.17 |

| Sequence | self-splicing fitness (ln) (30 °C) | self-splicing fitness (ln) (37 °C) |
| --- | --- | --- |
| AAUUAGCAAUAUUACGGGCC | – | -1.11 ± 0.49 |
| AGAAAGCAAUAUUACGGCUA | -0.324 ± 0.12 | 0.117 ± 0.13 |
| UUAGAGCAAUAUUACGCAAA | -1.89 ± 0.14 | -0.682 ± 0.16 |
| ACGCAGCAAUAUUACGCGCC | -2.5 ± 0.15 | -3.01 ± 0.27 |
| UACAAGCAAUAUUACGAACA | -1.14 ± 0.11 | -0.734 ± 0.097 |
| CCCGAGCAAUAUUACGCCGU | -3.61 ± 0.32 | -2.69 ± 0.32 |
| GAUGAGCAAUAUUACGCUGA | -3.11 ± 0.44 | -2.46 ± 0.38 |
| CAUCAGCAAUAUUACGUCAC | -3.06 ± 0.15 | -2.68 ± 0.23 |
| AAUGAGCAAUAUUACGUUCU | -2 ± 0.085 | -1.21 ± 0.092 |
| CUGAAGCAAUAUUACGAUCG | 0.00255 ± 0.12 | -0.0487 ± 0.13 |
| CACAAGCAAUAUUACGCCUA | -1.01 ± 0.091 | -0.204 ± 0.085 |
| CACCAGCAAUAUUACGACGA | -2.13 ± 0.14 | -1.54 ± 0.12 |
| GACUAGCAAUAUUACGGUUC | -3.18 ± 0.17 | -2.7 ± 0.32 |
| CUAAAGCAAUAUUACGGGUC | -3.75 ± 0.21 | -3.33 ± 0.37 |
| CCCAAGCAAUAUUACGGAGC | -3.64 ± 0.18 | -2.21 ± 0.17 |
| GAACAGCAAUAUUACGUGGG | -3.42 ± 0.11 | -1.9 ± 0.091 |
| ACCUAGCAAUAUUACGCAAU | -2 ± 0.1 | -0.798 ± 0.09 |
| AGCAAGCAAUAUUACGCACA | -0.316 ± 0.082 | 0.365 ± 0.12 |
| GGAGAGCAAUAUUACGAAUC | -3.58 ± 0.49 | -2.4 ± 0.39 |
| AUCUAGCAAUAUUACGCCCA | -0.101 ± 0.29 | -1.32 ± 0.24 |
| UUAAAGCAAUAUUACGUGAU | -3.01 ± 0.15 | -1.15 ± 0.14 |
| GGUAAGCAAUAUUACGAUAA | -1.43 ± 0.092 | -0.994 ± 0.13 |

From the supplement of paper PMC7877785
